The text below walks through data of publication PMC10180154.

Series [1] has as its target T1, LRP6 (recombinant human LRP-6, Fc chimera) (Homo sapiens) (UniProt O75581).
T1 sequence: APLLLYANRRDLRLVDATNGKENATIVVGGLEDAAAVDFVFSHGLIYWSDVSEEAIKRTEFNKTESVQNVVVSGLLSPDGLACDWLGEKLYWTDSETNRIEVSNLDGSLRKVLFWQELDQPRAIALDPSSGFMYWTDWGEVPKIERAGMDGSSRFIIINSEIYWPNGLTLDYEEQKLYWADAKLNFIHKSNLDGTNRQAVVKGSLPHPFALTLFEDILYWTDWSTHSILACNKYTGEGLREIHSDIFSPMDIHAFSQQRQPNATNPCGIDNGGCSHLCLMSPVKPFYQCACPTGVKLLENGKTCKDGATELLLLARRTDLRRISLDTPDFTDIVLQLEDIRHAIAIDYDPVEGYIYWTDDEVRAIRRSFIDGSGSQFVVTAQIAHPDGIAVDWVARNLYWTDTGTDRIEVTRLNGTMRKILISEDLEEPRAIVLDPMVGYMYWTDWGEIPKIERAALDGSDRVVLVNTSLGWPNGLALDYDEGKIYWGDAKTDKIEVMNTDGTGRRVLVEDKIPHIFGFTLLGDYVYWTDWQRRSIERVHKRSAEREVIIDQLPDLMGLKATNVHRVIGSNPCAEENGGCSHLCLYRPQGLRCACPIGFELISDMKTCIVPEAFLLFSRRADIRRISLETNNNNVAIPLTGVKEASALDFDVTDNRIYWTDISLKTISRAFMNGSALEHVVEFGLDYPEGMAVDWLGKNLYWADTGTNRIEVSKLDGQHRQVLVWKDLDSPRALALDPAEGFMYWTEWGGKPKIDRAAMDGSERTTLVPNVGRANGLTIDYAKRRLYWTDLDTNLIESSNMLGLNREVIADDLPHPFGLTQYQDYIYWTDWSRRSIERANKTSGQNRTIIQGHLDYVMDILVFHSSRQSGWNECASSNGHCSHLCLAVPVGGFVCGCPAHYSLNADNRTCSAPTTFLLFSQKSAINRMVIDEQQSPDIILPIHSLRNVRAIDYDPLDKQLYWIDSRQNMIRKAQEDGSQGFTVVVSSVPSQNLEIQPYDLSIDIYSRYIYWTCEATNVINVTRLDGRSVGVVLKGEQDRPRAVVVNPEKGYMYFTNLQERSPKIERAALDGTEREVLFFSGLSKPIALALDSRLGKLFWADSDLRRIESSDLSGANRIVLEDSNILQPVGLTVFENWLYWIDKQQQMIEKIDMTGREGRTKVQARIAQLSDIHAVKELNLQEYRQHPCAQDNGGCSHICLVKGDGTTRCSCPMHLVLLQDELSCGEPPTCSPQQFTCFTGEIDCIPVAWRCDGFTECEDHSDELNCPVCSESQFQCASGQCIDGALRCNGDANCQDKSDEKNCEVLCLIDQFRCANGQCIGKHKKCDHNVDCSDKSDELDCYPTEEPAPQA
Put plainly: SPR. Particulars: CE-LIF: incubation pH 8.0, 0.155% glutathione, 0.395% Tris-HCl; running buffer 50 mM borate pH 7.6, 20 kV, 25 C (CE-SELEX conditions). SPR: PBST pH 7.4, 0.05% ….

Series [2] has as its target T1, LRP6 (recombinant human LRP-6, Fc chimera) (Homo sapiens). Put plainly: CE-LIF (NECEEM). Particulars: CE-LIF: incubation pH 8.0, 0.155% glutathione, 0.395% Tris-HCl; running buffer 50 mM borate pH 7.6, 20 kV, 25 C (CE-SELEX conditions). SPR: PBST pH 7.4, 0.05% ….

For orientation: Kd means the equilibrium constant for the complex coming apart. Consider “AGCAGCACAGAGGTCAGATGCCGCAGGCAGCTGCCATTAGTCTCTATCCGTGACGGTATGCCTATGCGTGCTACCGTGAA [AptLRP6-A1]”, for which the Kd in series [1] came out at 13.4 nM; in series [2], 118 nM.
The matching figures for “AGCAGCACAGAGGTCAGATGCGACTTGCCTATCGGCATGACACAATCTTTTGGAGCGTAACCTATGCGTGCTACCGTGAA [AptLRP6-A4]”: 51 nM and 661 nM.
The matching figures for “AGCAGCACAGAGGTCAGATGGCAGCTAAGCAGGCGGCTCACAAAACCATTCGCATGCGGCCCTATGCGTGCTACCGTGAA [AptLRP6-A3]”: 25.7 nM and 105 nM.
The matching figures for “AGCAGCACAGAGGTCAGATGGCCACATTAGTCTCACCACTACCTGCGTACCTACCGCCGCCCTATGCGTGCTACCGTGAA [AptLRP6-A2]”: 173 nM and 1280 nM.
